Laboratory results published in publication PMC10540216, “Activity Guided Azide-methyllysine Photo-trapping for Substrate Profiling of Lysine Demethylases” (Journal of the American Chemical Society, 2023).

system: KDM4A-I71AzF; experiment: CASI: photo-crosslinking with HEK293T cell extracts, StrepTactin enrichment and LC-MS/MS proteomics; format: binding, human; conditions: sheet "Final results but with 0.01";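 also: lysates from HEK293T cells pretreated with a KDM4 inhibitor to raise proteome methylation, affinity-purified after ±UV, gel-resolved, trypsin-digested, with exclusive unique peptides per protein averaged per condition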

Molecule | Fold change (+UV/-UV)
HXK2_HUMAN (protein, UniProt P52789 1-917, looked up) Hexokinase-2: MIASHLLAYFFTELNHDQVQKVDQYLYHMRLSDETLLEISKRFRKEMEKGLGATTHPTAAVKMLPTFVRSTPDGTEHGEFLALDLGGTNFRVLWVKVTDNGLQKVEMENQIYAIPEDIMRGSGTQLFDHIAECLANFMDKLQIKDKKLPLGFTFSFPCHQTKLDESFLVSWTKGFKSSGVEGRDVVALIRKAIQRRGDFDIDIVAVVNDTVGTMMTCGYDDHNCEIGLIVGTGSNACYMEEMRHIDMVEGDEGRMCINMEWGAFGDDGSLNDIRTEFDQEIDMGSLNPGKQLFEKMISGMYMGELVRLILVKMAKEELLFGGKLSPELLNTGRFETKDISDIEGEKDGIRKAREVLMRLGLDPTQEDCVATHRICQIVSTRSASLCAATLAAVLQRIKENKGEERLRSTIGVDGSVYKKHPHFAKRLHKTVRRLVPGCDVRFLRSEDGSGKGAAMVTAVAYRLADQHRARQKTLEHLQLSHDQLLEVKRRMKVEMERGLSKETHASAPVKMLPTYVCATPDGTEKGDFLALDLGGTNFRVLLVRVRNGKWGGVEMHNKIYAIPQEVMHGTGDELFDHIVQCIADFLEYMGMKGVSLPLGFTFSFPCQQNSLDESILLKWTKGFKASGCEGEDVVTLLKEAIHRREEFDLDVVAVVNDTVGTMMTCGFEDPHCEVGLIVGTGSNACYMEEMRNVELVEGEEGRMCVNMEWGAFGDNGCLDDFRTEFDVAVDELSLNPGKQRFEKMISGMYLGEIVRNILIDFTKRGLLFRGRISERLKTRGIFETKFLSQIESDCLALLQVRAILQHLGLESTCDDSIIVKEVCTVVARRAAQLCGAGMAAVVDRIRENRGLDALKVTVGVDGTLYKLHPHFAKVMHETVKDLAPKCDVSFLQSEDGSGKGAALITAVACRIREAGQR | 0.7273
DHX15_HUMAN (protein, UniProt O43143 1-795, looked up) ATP-dependent RNA helicase …: MSKRHRLDLGEDYPSGKKRAGTDGKDRDRDRDREDRSKDRDRERDRGDREREREKEKEKELRASTNAMLISAGLPPLKASHSAHSTHSAHSTHSTHSAHSTHAGHAGHTSLPQCINPFTNLPHTPRYYDILKKRLQLPVWEYKDRFTDILVRHQSFVLVGETGSGKTTQIPQWCVEYMRSLPGPKRGVACTQPRRVAAMSVAQRVADEMDVMLGQEVGYSIRFEDCSSAKTILKYMTDGMLLREAMNDPLLERYGVIILDEAHERTLATDILMGVLKEVVRQRSDLKVIVMSATLDAGKFQIYFDNCPLLTIPGRTHPVEIFYTPEPERDYLEAAIRTVIQIHMCEEEEGDLLLFLTGQEEIDEACKRIKREVDDLGPEVGDIKIIPLYSTLPPQQQQRIFEPPPPKKQNGAIGRKVVVSTNIAETSLTIDGVVFVIDPGFAKQKVYNPRIRVESLLVTAISKASAQQRAGRAGRTRPGKCFRLYTEKAYKTEMQDNTYPEILRSNLGSVVLQLKKLGIDDLVHFDFMDPPAPETLMRALELLNYLAALNDDGDLTELGSMMAEFPLDPQLAKMVIASCDYNCSNEVLSITAMLSVPQCFVRPTEAKKAADEAKMRFAHIDGDHLTLLNVYHAFKQNHESVQWCYDNFINYRSLMSADNVRQQLSRIMDRFNLPRRSTDFTSRDYYINIRKALVTGYFMQVAHLERTGHYLTVKDNQVVQLHPSTVLDHKPEWVLYNEFVLTTKNYIRTCTDIKPEWLVKIAPQYYDMSNFPQCEAKRQLDRIIAKLQSKEYSQY | 1.071
DDX21_HUMAN (protein, UniProt Q9NR30 1-783, looked up) Nucleolar RNA helicase 2: MPGKLRSDAGLESDTAMKKGETLRKQTEEKEKKEKPKSDKTEEIAEEEETVFPKAKQVKKKAEPSEVDMNSPKSKKAKKKEEPSQNDISPKTKSLRKKKEPIEKKVVSSKTKKVTKNEEPSEEEIDAPKPKKMKKEKEMNGETREKSPKLKNGFPHPEPDCNPSEAASEESNSEIEQEIPVEQKEGAFSNFPISEETIKLLKGRGVTFLFPIQAKTFHHVYSGKDLIAQARTGTGKTFSFAIPLIEKLHGELQDRKRGRAPQVLVLAPTRELANQVSKDFSDITKKLSVACFYGGTPYGGQFERMRNGIDILVGTPGRIKDHIQNGKLDLTKLKHVVLDEVDQMLDMGFADQVEEILSVAYKKDSEDNPQTLLFSATCPHWVFNVAKKYMKSTYEQVDLIGKKTQKTAITVEHLAIKCHWTQRAAVIGDVIRVYSGHQGRTIIFCETKKEAQELSQNSAIKQDAQSLHGDIPQKQREITLKGFRNGSFGVLVATNVAARGLDIPEVDLVIQSSPPKDVESYIHRSGRTGRAGRTGVCICFYQHKEEYQLVQVEQKAGIKFKRIGVPSATEIIKASSKDAIRLLDSVPPTAISHFKQSAEKLIEEKGAVEALAAALAHISGATSVDQRSLINSNVGFVTMILQCSIEMPNISYAWKELKEQLGEEIDSKVKGMVFLKGKLGVCFDVPTASVTEIQEKWHDSRRWQLSVATEQPELEGPREGYGGFRGQREGSRGFRGQRDGNRRFRGQREGSRGPRGQRSGGGNKSNRSQNKGQKRSFSKAFGQ | 1
MCM5_HUMAN (protein, UniProt P33992 2-734, looked up) DNA replication licensing …: SGFDDPGIFYSDSFGGDAQADEGQARKSQLQRRFKEFLRQYRVGTDRTGFTFKYRDELKRHYNLGEYWIEVEMEDLASFDEDLADYLYKQPAEHLQLLEEAAKEVADEVTRPRPSGEEVLQDIQVMLKSDASPSSIRSLKSDMMSHLVKIPGIIIAASAVRAKATRISIQCRSCRNTLTNIAMRPGLEGYALPRKCNTDQAGRPKCPLDPYFIMPDKCKCVDFQTLKLQELPDAVPHGEMPRHMQLYCDRYLCDKVVPGNRVTIMGIYSIKKFGLTTSRGRDRVGVGIRSSYIRVLGIQVDTDGSGRSFAGAVSPQEEEEFRRLAALPNVYEVISKSIAPSIFGGTDMKKAIACLLFGGSRKRLPDGLTRRGDINLLMLGDPGTAKSQLLKFVEKCSPIGVYTSGKGSSAAGLTASVMRDPSSRNFIMEGGAMVLADGGVVCIDEFDKMREDDRVAIHEAMEQQTISIAKAGITTTLNSRCSVLAAANSVFGRWDETKGEDNIDFMPTILSRFDMIFIVKDEHNEERDVMLAKHVITLHVSALTQTQAVEGEIDLAKLKKFIAYCRVKCGPRLSAEAAEKLKNRYIIMRSGARQHERDSDRRSSIPITVRQLEAIVRIAEALSKMKLQPFATEADVEEALRLFQVSTLDAALSGTLSGVEGFTSQEDQEMLSRIEKQLKRRFAIGSQVSEHSIIKDFTKQKYPEHAIHKVLQLMLRRGEIQHRMQRKVLYRLK | 0.9167
MCM6_HUMAN (protein, UniProt Q14566 1-821, looked up) DNA replication licensing …: MDLAAAAEPGAGSQHLEVRDEVAEKCQKLFLDFLEEFQSSDGEIKYLQLAEELIRPERNTLVVSFVDLEQFNQQLSTTIQEEFYRVYPYLCRALKTFVKDRKEIPLAKDFYVAFQDLPTRHKIRELTSSRIGLLTRISGQVVRTHPVHPELVSGTFLCLDCQTVIRDVEQQFKYTQPNICRNPVCANRRRFLLDTNKSRFVDFQKVRIQETQAELPRGSIPRSLEVILRAEAVESAQAGDKCDFTGTLIVVPDVSKLSTPGARAETNSRVSGVDGYETEGIRGLRALGVRDLSYRLVFLACCVAPTNPRFGGKELRDEEQTAESIKNQMTVKEWEKVFEMSQDKNLYHNLCTSLFPTIHGNDEVKRGVLLMLFGGVPKTTGEGTSLRGDINVCIVGDPSTAKSQFLKHVEEFSPRAVYTSGKASSAAGLTAAVVRDEESHEFVIEAGALMLADNGVCCIDEFDKMDVRDQVAIHEAMEQQTISITKAGVKATLNARTSILAAANPISGHYDRSKSLKQNINLSAPIMSRFDLFFILVDECNEVTDYAIARRIVDLHSRIEESIDRVYSLDDIRRYLLFARQFKPKISKESEDFIVEQYKHLRQRDGSGVTKSSWRITVRQLESMIRLSEAMARMHCCDEVQPKHVKEAFRLLNKSIIRVETPDVNLDQEEEIQMEVDEGAGGINGHADSPAPVNGINGYNEDINQESAPKASLRLGFSEYCRISNLIVLHLRKVEEEEDESALKRSELVNWYLKEIESEIDSEEELINKKRIIEKVIHRLTHYDHVLIELTQAGLKGSTEGSESYEEDPYLVVNPNYLLED | 0.75
FUS_HUMAN (protein, UniProt P35637 1-526, looked up) RNA-binding protein FUS: MASNDYTQQATQSYGAYPTQPGQGYSQQSSQPYGQQSYSGYSQSTDTSGYGQSSYSSYGQSQNTGYGTQSTPQGYGSTGGYGSSQSSQSSYGQQSSYPGYGQQPAPSSTSGSYGSSSQSSSYGQPQSGSYSQQPSYGGQQQSYGQQQSYNPPQGYGQQNQYNSSSGGGGGGGGGGNYGQDQSSMSSGGGSGGGYGNQDQSGGGGSGGYGQQDRGGRGRGGSGGGGGGGGGGYNRSSGGYEPRGRGGGRGGRGGMGGSDRGGFNKFGGPRDQGSRHDSEQDNSDNNTIFVQGLGENVTIESVADYFKQIGIIKTNKKTGQPMINLYTDRETGKLKGEATVSFDDPPSAKAAIDWFDGKEFSGNPIKVSFATRRADFNRGGGNGRGGRGRGGPMGRGGYGGGGSGGGGRGGFPSGGGGGGGQQRAGDWKCPNPTCENMNFSWRNECNQCKAPKPDGPGGGPGGSHMGGNYGDDRRGGRGGYDRGGYRGRGGDRGGFRGGRGGGDRGGFGPGKMDSRGEHRQDRRERPY | 0.5
CDC5L_HUMAN (protein, UniProt Q99459 1-802, looked up) Cell division cycle 5-like …: MPRIMIKGGVWRNTEDEILKAAVMKYGKNQWSRIASLLHRKSAKQCKARWYEWLDPSIKKTEWSREEEEKLLHLAKLMPTQWRTIAPIIGRTAAQCLEHYEFLLDKAAQRDNEEETTDDPRKLKPGEIDPNPETKPARPDPIDMDEDELEMLSEARARLANTQGKKAKRKAREKQLEEARRLAALQKRRELRAAGIEIQKKRKRKRGVDYNAEIPFEKKPALGFYDTSEENYQALDADFRKLRQQDLDGELRSEKEGRDRKKDKQHLKRKKESDLPSAILQTSGVSEFTKKRSKLVLPAPQISDAELQEVVKVGQASEIARQTAEESGITNSASSTLLSEYNVTNNSVALRTPRTPASQDRILQEAQNLMALTNVDTPLKGGLNTPLHESDFSGVTPQRQVVQTPNTVLSTPFRTPSNGAEGLTPRSGTTPKPVINSTPGRTPLRDKLNINPEDGMADYSDPSYVKQMERESREHLRLGLLGLPAPKNDFEIVLPENAEKELEEREIDDTYIEDAADVDARKQAIRDAERVKEMKRMHKAVQKDLPRPSEVNETILRPLNVEPPLTDLQKSEELIKKEMITMLHYDLLHHPYEPSGNKKGKTVGFGTNNSEHITYLEHNPYEKFSKEELKKAQDVLVQEMEVVKQGMSHGELSSEAYNQVWEECYSQVLYLPGQSRYTRANLASKKDRIESLEKRLEINRGHMTTEAKRAAKMEKKMKILLGGYQSRAMGLMKQLNDLWDQIEQAHLELRTFEELKKHEDSAIPRRLECLKEDVQRQQEREKELQHRYADLLLEKETLKSKF | 0
RPN1_HUMAN (protein, UniProt P04843 24-607, looked up) Dolichyl-diphosphooligosacchar …: ASSEAPPLINEDVKRTVDLSSHLAKVTAEVVLAHLGGGSTSRATSFLLALEPELEARLAHLGVQVKGEDEEENNLEVRETKIKGKSGRFFTVKLPVALDPGAKISVIVETVYTHVLHPYPTQITQSEKQFVVFEGNHYFYSPYPTKTQTMRVKLASRNVESYTKLGNPTRSEDLLDYGPFRDVPAYSQDTFKVHYENNSPFLTITSMTRVIEVSHWGNIAVEENVDLKHTGAVLKGPFSRYDYQRQPDSGISSIRSFKTILPAAAQDVYYRDEIGNVSTSHLLILDDSVEMEIRPRFPLFGGWKTHYIVGYNLPSYEYLYNLGDQYALKMRFVDHVFDEQVIDSLTVKIILPEGAKNIEIDSPYEISRAPDELHYTYLDTFGRPVIVAYKKNLVEQHIQDIVVHYTFNKVLMLQEPLLVVAAFYILFFTVIIYVRLDFSITKDPAAEARMKVACITEQVLTLVNKRIGLYRHFDETVNRYKQSRDISTLNSGKKSLETEHKALTSEIALLQSRLKTEGSDLCDRVSEMQKLDAQVKELVLKSAVEAERLVAGKLKKDTYIENEKLISGKRQELVTKIDHILDAL | 3
